Reference: article PMC13330650 (Matrix biology : journal of the International Society for …, 2025)
Residue numbers refer to the chain shown, from its start. In names and notes the source's numbering stands.

Experiments:
UGDH T325D = UGDH T325D obligate dimer; cited from earlier work
[1] = Thermofluor Stability Assay (thermal denaturation) of purified UGDH; format: physicochemical, human; conditions: for Tm Apo: apo enzyme; for Tm Holo: holoenzyme complex (substrate and cofactor)
From the text: We first generated the UGDH S316 point mutants in a bacterial construct that expressed the proteins with a six-histidine fusion to facilitate purification by nickel affinity chromatography as we have done previously. […] However, UGDH S316D yields were somewhat lower as a result of protein precipitation following purification. To compare the intrinsic stability of the S316 point mutants, we used a modified version of the Thermofluor Stability Assay, which we have used previously as a preliminary indicator of UGDH quaternary assembly. The UGDH WT and UGDH S316A enzymes had significant increases in melting temperature (Tm) upon addition of either substrate or cofactor and were stabilized by almost 20°C in the holoenzyme complex as expected.
Purified S316 mutants were compared to the UGDH WT enzyme using the following approaches as previously described. Enzymatic activity was evaluated by steady state kinetics in the presence and absence of the endogenous inhibitor UDP-Xylose to compare Michaelis constants and IC50 values. Intrinsic stability was assessed by thermal denaturation and quaternary structure was determined by size exclusion chromatography. Binding of UDP-Xylose to recombinant UGDH and mutants was measured by isothermal titration calorimetry using the MicroCal PEAQ-ITC (Malvern Panalytical). UGDH WT (50 μM in 0.1 M sodium phosphate buffer, pH 7.4) was placed in the cell, with UDP-Xyl (250 μM) in the syringe. Binding heats were corrected for the heat of dilution and analyzed using the MicroCal PEAQ-ITC Analysis Software, employing a single-site binding model to determine Kd values.

B1: UGDH T325D: obligate dimeric UGDH mutant, T325 to aspartate (protein, UniProt O60701 1-494, looked up, variant T325D)
UDP-glucose 6-dehydrogenase: MFEIKKICCIGAGYVGGPTCSVIAHMCPEIRVTVVDVNESRINAWNSPTLPIYEPGLKEVVESCRGKNLFFSTNIDDAIKEADLVFISVNTPTKTYGMGKGRAADLKYIEACARRIVQNSNGYKIVTEKSTVPVRAAESIRRIFDANTKPNLNLQVLSNPEFLAEGTAIKDLKNPDRVLIGGDETPEGQRAVQALCAVYEHWVPREKILTTNTWSSELSKLAANAFLAQRISSINSISALCEATGADVEEVATAIGMDQRIGNKFLKASVGFGGSCFQKDVLNLVYLCEALNLPEVARYWQQVIDMNDYQRRRFASRIIDSLFNDVTDKKIAILGFAFKKDTGDTRESSSIYISKYLMDEGAHLHIYDPKVPREQIVVDLSHPGVSEDDQVSRLVTISKDPYEACDGAHAVVICTEWDMFKELDYERIHKKMLKPAFIFDGRRVLDGLHNELQTIGFQIETIGKKVSSKRIPYAPSGEIPKFSLQDPPNKKPKV
UGDH T325D
  Vmax values: 65 to 75 nmol/min/mg

B2: WT: purified recombinant human wild-type UGDH (protein)
chain: B1 UDP-glucose 6-dehydrogenase with D325T
modifications: left off: His6, end not stated, state not stated
notes: purified recombinant human wild-type UGDH
[1]
  Tm Apo: 50±0.4 °C
  Tm Holo: 68±1.7 °C

B3: S316A: purified recombinant human UGDH, phosphodeficient serine 316 to alanine point mutant (protein)
chain: B1 UDP-glucose 6-dehydrogenase with S316A, D325T
modifications: left off: His6, end not stated, state not stated
notes: purified recombinant human UGDH, phosphodeficient serine 316 to alanine point mutant
[1]
  Tm Apo: 49±0.2 °C
  Tm Holo: 66±3.0 °C

B4: S316D: purified recombinant human UGDH, phosphomimetic serine 316 to aspartate point mutant (protein)
chain: B1 UDP-glucose 6-dehydrogenase with S316D, D325T
modifications: left off: His6, end not stated, state not stated
notes: purified recombinant human UGDH, phosphomimetic serine 316 to aspartate point mutant
[1]
  Tm Apo: 47±1.0 °C
  Tm Holo: 63±0.3 °C
